Changes are numbered by the printed parent chain. Names and notes keep the numbering of the source.
B1: VEGFR-Fc (VEGF trap Fc fusion, sequence 6A) (Fc fusion)
chain: SDTGRPFVEMYSEIPEIIHMTEGRELVIPCRVTSPNITVTLKKFPLDTLIPDGKRIIWDSRKGFIISNATYKEIGLLTCEATVNGHLYKTNYLTHRQTNTIIDVVLSPSHGIELSVGEKLVLNCTARTELNVGIDFNWEYPSSKHQHKKLVNRDLKTQSGSEMKKFLSTLTIDGVTRSDQGLYTCAASSGLMTKKNSTFVRVHEKDKTHTCPPCPAPEAAGAPSVFLFPPKPKDTLMISRTPEVTCVVVDVSHEDPEVKFNWYVDGVEVHNAKTKPREEQYNSTYRVVSVLTVLHQDWLNGKEYKCKVSNKALPAPIEKTISKAKGQPREPQVYTLPPSREEMTKNQVSLTCLVKGFYPSDIAVEWESNGQPENNYKTTPPVLDSDGSFFLYSKLTVDKSRWQQGNVFSCSVMHEALHNHYTQKSLSCSPGK
notes: VEGF trap with engineered IgG1 Fc (L234A, L235A, G237A, L443C); also called VEGFR-Trap Fc fusion
B2: anti-IL-6 antibody, heavy chain WT / light chain M32L, M50D, N52S, M88Q (antibody, human IgG1, V domains shown)
VH: EVQLVESGGGLVQPGGSLRLSCAASGFTFSPFAMSWVRQAPGKGLEWVAKISPGGSWTYYSDTVTGRFTFSLDTSKSTAYLQMNSLRAEDTAVYYCARQLWGYYALDIWGQGTLVTVSS
VL: DIQLTQSPSSLSASVGDRVTITCSASISVSYLYWYQQKPGKAPKLLIYDDSSLASGVPSRFSGSGSGTDFTLTISSLQPEDFATYYCQQWSGYPYTFGQGTKVEIK
notes: Human IgG1
B3: anti-IL-6 antibody, heavy chain G66D / light chain M32L, M50D, N52S, M88Q (antibody, human IgG1, V domains shown)
VH: B2 VH with G66D
VL: B2 VL
notes: Human IgG1
B4: anti-IL-6 antibody, heavy chain S35H, G66D / light chain M32L, M50D, N52S, M88Q (antibody, human IgG1, V domains shown)
VH: B2 VH with S35H, G66D
VL: B2 VL
notes: Human IgG1
B5: anti-IL-6 antibody, heavy chain T63E, G66D / light chain M32L, M50D, N52S, M88Q (antibody, human IgG1, V domains shown)
VH: B2 VH with T63E, G66D
VL: B2 VL
notes: Human IgG1
B6: anti-IL-6 antibody, heavy chain T63K, G66D / light chain M32L, M50D, N52S, M88Q (antibody, human IgG1, V domains shown)
VH: B2 VH with T63K, G66D
VL: B2 VL
notes: Human IgG1
B7: anti-IL-6 antibody, heavy chain T63Q, G66D / light chain M32L, M50D, N52S, M88Q (antibody, human IgG1, V domains shown)
VH: B2 VH with T63Q, G66D
VL: B2 VL
notes: Human IgG1
B8: anti-IL-6 antibody, heavy chain T65Q, G66D / light chain M32L, M50D, N52S, M88Q (antibody, human IgG1, V domains shown)
VH: B2 VH with T65Q, G66D
VL: B2 VL
notes: Human IgG1
B9: anti-IL-6 antibody, heavy chain T63Q, G66D / light chain M32L, M50D, N52S, M88Q (antibody, IgG1, V domains shown)
VH: B2 VH with T63Q, G66D
VL: B2 VL
notes: Full IgG1 (Expi293); VL = variant III
B10: anti-IL-6 antibody, heavy chain T65Q, G66D / light chain M32L, M50D, N52S, M88Q (antibody, IgG1, V domains shown)
VH: B2 VH with T65Q, G66D
VL: B2 VL
notes: as for B9
B11: VEGFR-Anti-IL-6 (sequences 1A-2A-3H, light chain 4A) (other)
heavy: SDTGRPFVEMYSEIPEIIHMTEGRELVIPCRVTSPNITVTLKKFPLDTLIPDGKRIIWDSRKGFIISNATYKEIGLLTCEATVNGHLYKTNYLTHRQTNTIIDVVLSPSHGIELSVGEKLVLNCTARTELNVGIDFNWEYPSSKHQHKKLVNRDLKTQSGSEMKKFLSTLTIDGVTRSDQGLYTCAASSGLMTKKNSTFVRVHEKGGGGSGGGGSEVQLVESGGGLVQPGGSLRLSCAASGFTFSPFAISWVRQAPGKGLEWVAKISPGGSWTYYSDTVTDRFTFSLDTSKSTAYLQMNSLRAEDTAVYYCARQLWGYYALDVWGQGTLVTVSSASTKGPSVFPLAPSSKSTSGGTAALGCLVKDYFPEPVTVSWNSGALTSGVHTFPAVLQSSGLYSLSSVVTVPSSSLGTQTYICNVNHKPSNTKVDKKVEPKSCDKTHTCPPCPAPEAAGAPSVFLFPPKPKDTLMISRTPEVTCVVVDVSHEDPEVKFNWYVDGVEVHNAKTKPREEQYNSTYRVVSVLTVLHQDWLNGKEYKCKVSNKALPAPIEKTISKAKGQPREPQVYTLPPSREEMTKNQVSLTCLVKGFYPSDIAVEWESNGQPENNYKTTPPVLDSDGSFFLYSKLTVDKSRWQQGNVFSCSVMHEALHNHYTQKSLSCSPGK
light: DIQLTQSPSSLSASVGDRVTITCSASISVSYLYWYQQKPGKAPKLLIYDDSSLASGVPSRFSGSGSGTDFTLTISSLQPEDFATYYCQQWSGYPYTFGQGTKVEIKRTVAAPSVFIFPPSDEQLKSGTASVVCLLNNFYPREAKVQWKVDNALQSGNSQESVTEQDSKDSTYSLSSTLTLSKADYEKHKVYACEVTHQGLSSPVTKSFNRGEC
notes: linker 2A is the double Gly-Gly-Gly-Gly-Ser repeat
B12: anti-IL-6 antibody, heavy chain S35H G66D, light chain M32L/M50D/N52S/M88Q (antibody, human IgG1, V domains shown)
VH: B2 VH with S35H, G66D
VL: B2 VL
notes: see m23; engineered human IgG1; also called S35H G66D double mutant
B13: anti-IL-6 antibody, heavy chain S35H G66D, light chain wild-type (antibody, human IgG1, V domains shown)
VH: B2 VH with S35H, G66D
VL: B2 VL with L32M, D50M, S52N, Q88M
notes: as for B12
B14: VEGFR_variant_1-Anti-IL-6 (T94I) (other)
fusion: B11 heavy with T94I
light: B11 light
B15: VEGFR_variant_2-Anti-IL-6 (H95I) (other)
fusion: B11 heavy with H95I
light: B11 light
B16: VEGFR_variant_3-Anti-IL-6 (T94I/H95I) (other)
fusion: B11 heavy with T94I, H95I
light: B11 light

The binders below were run against T1, VEGF-A165 (UniProt P15692-4 27-191) (assay: SPR (Biacore T200), 37 C, binder captured on a Protein A chip, VEGF-A165 0.19 to 15 nM flowed over, 1:1 Langmuir fit).
T1 construct: analyte of the Biacore assays
T1 sequence (P15692 other isoform, or with tags, fused parts or gaps limits assumed): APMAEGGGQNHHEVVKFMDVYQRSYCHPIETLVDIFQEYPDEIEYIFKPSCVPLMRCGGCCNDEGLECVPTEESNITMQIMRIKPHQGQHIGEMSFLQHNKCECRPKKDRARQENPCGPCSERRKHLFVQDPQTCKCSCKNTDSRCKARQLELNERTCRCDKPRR

Row | Binder | Kd [nM] | koff [s⁻¹] | kon [M⁻¹ s⁻¹]
1 | B1 | 0.0102 | 9.29e-05 | 9.14e+06

These binders were tested against T2, human IL-6 (human, UniProt P05231 30-212) (assay: SPR (Biacore), supernatant antibody on Protein A chip, IL-6 flowed, 37 C).
T2 sequence (P05231 30-212 limits assumed): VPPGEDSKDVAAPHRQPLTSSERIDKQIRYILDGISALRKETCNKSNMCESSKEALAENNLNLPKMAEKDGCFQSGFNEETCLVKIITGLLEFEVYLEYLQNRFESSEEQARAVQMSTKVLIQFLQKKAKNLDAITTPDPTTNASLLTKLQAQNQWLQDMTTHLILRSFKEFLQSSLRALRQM

Row | Binder | Kd [nM] | koff [s⁻¹] | kon [M⁻¹ s⁻¹]
2 | B2 | 0.611 | 0.000414 | 677000
3 | B3 | 0.296 | 0.000483 | 1.63e+06
4 | B4 | 0.166 | 0.000539 | 3.24e+06
5 | B5 | 0.242 | 0.000485 | 2e+06
6 | B6 | 0.246 | 0.000529 | 2.15e+06
7 | B7 | 0.259 | 0.000461 | 1.78e+06
8 | B8 | 0.258 | 0.000562 | 2.18e+06

Each binder was assayed against T3, human IL-6 (human, UniProt P05231 30-212) (assay: SPR Biacore, supernatant Ab on Protein A chip, 37 C).
T3 construct: IL-6 flowed over captured antibodies
T3 sequence (P05231 30-212 limits assumed): as above

Row | Binder | Kd [nM] | koff [s⁻¹] | kon [M⁻¹ s⁻¹]
9 | B9 | 0.259 | 0.000461 | 1.78e+06
10 | B10 | 0.258 | 0.000562 | 2.18e+06

These binders were tested against VEGF (UniProt P15692-4 27-191, limits assumed) (assay: cell-based or functional assay).
Chain of VEGF (P15692 other isoform, or with tags, fused parts or gaps limits assumed): as the sequence (P15692 other isoform, or with tags, fused parts or gaps limits assumed) above

Row | Binder | cell-based VEGF stimulated VEGFR reporter assay (KDR/VEGF HEK293, luminescence), IC50 [nM]
11 | B11 | 0.18

Each binder was assayed against recombinant human IL-6 (human, UniProt P05231 30-212) (assay: SPR, antibody captured on Protein A, 37 C).
Chain of recombinant human IL-6 (P05231 30-212 limits assumed): as the sequence (P05231 30-212 limits assumed) above
Experimental: (§1) Antibodies were captured on a Protein A chip (GE) by injecting 1:20 cell supernatant dilutions at 10 μL/min for 60 seconds. […] The sensor chip was regenerated by a 60 seconds injection of 10 mM Glycine pH 1.7 at the flow rate of 50 μL/min. […] For this setup, 1 μg/mL of purified antibody was injected over a Protein A chip at 10 μL/min for 25 seconds. […] The sensor chip was regenerated by a 60 seconds injection of 10 mM Glycine pH 1.7 at flow rate of 50 μL/min. Data analysis for supernatant and purified samples were performed using BIAevaluation software (GE). All sensorgrams were double reference subtracted and fit using a 1:1 Langmuir binding model.

Row | Binder | fold increase in affinity [fold]
12 | B12 | ~1.3
13 | B13 | ~2

The binders below were run against T3, human IL-6 (assay: SPR Biacore, purified Ab on Protein A chip, 37 C).
Experimental: as §1

Row | Binder | Kd [nM] | koff [s⁻¹] | kon [M⁻¹ s⁻¹]
14 | B9 | 0.201 | 0.000341 | 1.69e+06
15 | B10 | 0.209 | 0.00038 | 1.82e+06

Each binder was assayed against T2, human IL-6 (assay: SPR (Biacore), purified antibody on Protein A chip, IL-6 flowed, 37 C).
Experimental: as §1

Row | Binder | Kd [nM] | koff [s⁻¹] | kon [M⁻¹ s⁻¹]
16 | B2 | 0.286 | 0.000319 | 1.12e+06
17 | B3 | 0.244 | 0.000412 | 1.69e+06
18 | B4 | 0.212 | 0.000254 | 1.2e+06
19 | B5 | 0.198 | 0.000327 | 1.65e+06
20 | B6 | 0.252 | 0.000401 | 1.59e+06
21 | B7 | 0.201 | 0.000341 | 1.69e+06
22 | B8 | 0.209 | 0.00038 | 1.82e+06

The binders below were run against T1, VEGF-A165 (assay: Biacore T200 SPR at 37 C, binder captured on Protein A chip, VEGF-A165 0.19 to 15 nM in five steps, 60 min dissociation, 1:1 Langmuir fit).
Experimental: FIGS. 14A-14F illustrate the results for a series of Biacore assays used to determine the affinity between Anti-VEGF agents and VEGF. Binding kinetics between molecules were measured using a Biacore T200 (GE Healthcare) at 37° C. in buffer HBS-EP+ containing 1 mg/mL BSA. […] The sensor chip surface was regenerated by 60 seconds injection of 10 mM Glycine, pH 1.7 at a flow rate of 50 μl/min. All sensorgrams were double reference subtracted and fit using a 1:1 Langmuir binding model.

Row | Binder | Kd [nM] | koff [s⁻¹] | kon [M⁻¹ s⁻¹]
23 | B11 | 0.00798 | 0.000603 | 7.55e+07
24 | B14 | 0.0185 | 0.00199 | 1.08e+08
25 | B15 | 0.0143 | 0.00164 | 1.15e+08
26 | B16 | 0.0187 | 0.00266 | 1.42e+08

Source: patent US20240209076A1 (KODIAK SCIENCES, published 2024)
